# According to publication PMC8294587, “Intrinsic differences in the mechanisms of Tie2 binding to angiopoietins exploited by directed evolution to create an Ang2-selective ligand trap” (The Journal of Biological Chemistry, 2021):
# B1: wild-type Tie2 ectodomain-Fc [human] / Angiopoietin-1 [not stated] (parent complex)
# chain 1: AMDLILINSLPLVSDAETSLTCIASGWRPHEPITIGRDFEALMNQHQDPLEVTQDVTREWAKKVVWKREKASKINGAYFCEGRVRGEAIRIRTMKMRQQASFLPATLTMTVDKGDNVNISFKKVLIKEEDAVIYKNGSFIHSVPRHEVPDILEVHLPHAQPQDAGVYSARYIGGNLFTSAFTRLIVRRCEAQKWGPECNHLCTACMNNGVCHEDTGECICPPGFMGRTCEKACELHTFGRTCKERCSGQEGCKSYVFCLPDPYGCSCATGWKGLQCNEACHPGFYGPDCKLRCSCNNGEMCDRFQGCLCSPGWQGLQCEREGIQRMTPKIVDLPDHIEVNSGKFNPICKASGWPLPTNEEMTLVKPDGTVLHPKDFNHTDHFSVAIFTIHRILPPDSGVWVCSVNTVAGMVEKPFNISVK
# chain 2: HIGCSNQRRSPENSGRRYNRIQHGQCAYTFILPEHDGNCRESTTDQYNTNALQRDAPHVEPDFSSQKLQHLEHVMENYTQWLQKLENYIVENMKSEMAQIQQNAVQNHTATMLEIGTSLLSQTAEQTRKLTDVETQVLNQTSRLEIQLLENSLSTYKLEKQLLQQTNEILKIHEKNSLLEHKILEMEGKHKEELDTLKEEKENLQGLVTRQTYIIQELEKQLNRATTNNSVLQKQQLELMDTVHNLVNLCTKEGVLLKGGKREEEKPFRDCADVYQAGFNKSGIYTIYINNMPEPKKVFCNMDVNGGGWTVIQHREDGSLDFQRGWKEYKMGFGNPSGEYWLGNEFIFAITSQRQYMLRIELMDWEGNRAYSQYDRFHIGNEKQNYRLYLKGHTGTAGKQSSLILHGADFSTKDADNDNCMCKCALMLTGGWWFDACGPSNLNGMFYTAGQNHGKLNGIKWHYFKGPSYSLRSTTMMIRPLDF
# B2: wild-type Tie2 ectodomain-Fc [human] / Angiopoietin-2 [not stated] (parent complex)
# chain 1: B1 chain 1
# chain 2: YNNFRKSMDSIGKKQYQVQHGSCSYTFLLPEMDNCRSSSSPYVSNAVQRDAPLEYDDSVQRLQVLENIMENNTQWLMKLENYIQDNMKKEMVEIQQNAVQNQTAVMIEIGTNLLNQTAEQTRKLTDVEAQVLNQTTRLELQLLEHSLSTNKLEKQILDQTSEINKLQDKNSFLEKKVLAMEDKHIIQLQSIKEEKDQLQVLVSKQNSIIEELEKKIVTATVNNSVLQKQQHDLMETVNNLLTMMSTSNSAKDPTVAKEEQISFRDCAEVFKSGHTTNGIYTLTFPNSTEEIKAYCDMEAGGGGWTIIQRREDGSVDFQRTWKEYKVGFGNPSGEYWLGNEFVSQLTNQQRYVLKIHLKDWEGNEAYSLYEHFYLSSEELNYRIHLKGLTGTAGKISSISQPGNDFSTKDGDNDKCICKCSQMLTGGWWFDACGPSNLNGMYYPQRQNTNKFNGIKWYYWKGSGYSLKATTMMIRPADF
# Variants of: B1
# Experiment: ELISA (named by the earlier reader; legend does not name the assay); mutant read at its highest concentration point, about 300 nM Tie2 ectodomain; parent value is the wild-type curve's highest concentration point, about 30-50 nM; parent: 1; read off a plot
row,response [AU],Variant
1,~0.88,"chain 1 R145A, chain 1 H146A"

# Variants of: B1
# Experiment: ELISA (named by the earlier reader; legend does not name the assay); mutant read at its highest concentration point, about 300 nM Tie2 ectodomain; parent value is the wild-type curve's highest concentration point, about 50-100 nM; parent: …; read off a plot
row,response [AU],Variant
1,~0.09,"chain 1 R145A, chain 1 H146A, chain 1 E147A"

# Variants of: B2
# Experiment: ELISA (named by the earlier reader; legend does not name the assay); mutant read at its highest concentration point, about 300 nM Tie2 ectodomain; parent value is the wild-type curve's highest concentration point, about 50 nM; parent: 1; read off a plot
row,response [AU],Variant
1,~1,"chain 1 R145A, chain 1 H146A"

# Variants of: B2
# Experiment: ELISA (named by the earlier reader; legend does not name the assay); mutant read at its highest concentration point, about 300 nM Tie2 ectodomain; parent value is the wild-type curve's highest concentration point, about 50 nM; parent: 0.9; read off a plot
row,response [AU],Variant
1,~0.58,"chain 1 R145A, chain 1 H146A, chain 1 E147A"
